# T1: human [1-305]-mouse chimeric EL (human; mouse, UniProt Q9WVG5 306-500)
# T1 sequence: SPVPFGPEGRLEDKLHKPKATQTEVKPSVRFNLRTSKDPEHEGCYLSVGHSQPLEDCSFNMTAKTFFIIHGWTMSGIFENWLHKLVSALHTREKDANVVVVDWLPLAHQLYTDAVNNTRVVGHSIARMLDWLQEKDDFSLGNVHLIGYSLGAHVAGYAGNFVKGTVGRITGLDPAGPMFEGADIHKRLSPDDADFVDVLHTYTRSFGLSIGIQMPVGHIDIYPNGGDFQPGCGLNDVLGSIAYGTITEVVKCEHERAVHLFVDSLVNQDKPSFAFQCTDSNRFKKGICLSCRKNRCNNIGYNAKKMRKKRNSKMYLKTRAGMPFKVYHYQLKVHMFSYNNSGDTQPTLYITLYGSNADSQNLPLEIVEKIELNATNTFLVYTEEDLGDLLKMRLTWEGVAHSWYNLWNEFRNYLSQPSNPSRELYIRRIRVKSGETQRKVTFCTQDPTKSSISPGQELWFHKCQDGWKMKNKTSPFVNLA
# Key:
# [1] = molecular target: T1, human [1-305]-mouse chimeric EL; assay: cell-based or functional assay
# [2] = molecular target: T1, human [1-305]-mouse chimeric EL; assay: Biacore; EL captured by anti-C2-tag Ab; bivalent fit
# Experimental: The binding affinities of anti-EL antibodies were measured using Biacore. […] Then, anti-EL humanized antibodies were added and the binding affinities were calculated by bivalent fitting of BIAevaluation software.
Binder,Neutralizing activity IC50 [1] [nM],Kd [2] [nM],koff [2] [s⁻¹],kon [2] [M⁻¹ s⁻¹]
"h53A11-S3 (antibody, V domains shown) VH: QVQLVQSGAEVKKPGASVKVSCKASGYTFTDYTMHWVRQAPGQRLEWMGGINPYYGGTTYNEKFKDRVTITRDTSASTAYMELSSLRSEDTAVYYCAKGDYYGGSYNYWGQGTTVTVSS VL: EIVMTQSPATLSVSPGERATLSCRASQDISNSLHWYQQKPGQAPRLLIKYASQSISGIPARFSGSGSGTEFTLTISSLQSEDFAVYYCQQSNSWPYTFGQGTKLEIK",1.8,–,–,–
"h55A1-S4 (antibody, V domains shown, humanized) VH: QVQLVQSGSELKKPGASVKVSCKASGYTFTNYAMNWVRQAPGQGLEWMGWINTYSGVGTYAGDFKGRFVFSLDTSVSTAYLQISSLKAEDTAVYYCARRGFYGRRFFDVWGKGTTVTVSS VL: DIVLTQSPASLAVSPGQRATITCKASQSVDYDVDSYMHWYQQKPGQPPKLLIYAASNLASGVPARFSGSGSGTDFTLTINPVEANDTANYYCQQTIEDPPTFGGGTKVEIK",1.1,3,0.00024,80000
"h13B3-S3 (antibody, V domains shown) VH: QVQLVQSGAEVKKPGASVKVSCKASGYTFTEYTMHWVRQAPGQGLEWMGSINPYYGGTSYNEKFKDRVTMTRDTSTSTVYMELSSLRSEDTAVYYCARYGNYVGYFDYWGQGTTVTVSS VL: EIVLTQSPATLSLSPGERATLSCRASSSVHYMYWYQQKPGQAPRLLIYYTSNLAPGIPARFSGSGSGTDFTLTISSLEPEDFAVYYCQQFTSSPYTFGGGTKVEIK",2.1,–,–,–
"h13B3-S4 (antibody, V domains shown) VH: QVQLVQSGAEVKKPGASVKVSCKASGYTFTEYTMHWVRQAPGQGLEWMGSINPYYGGTSYNEKFKDRVTSTRDTSISTAYMELSRLRSDDTVVYYCARYGNYVGYFDYWGQGTTVTVSS VL: EIVLTQSPATLSLSPGERATLSCRASSSVHYMYWYQQKPGQAPRLLIYYTSNLAPGIPARFSGSGSGTDFTLTISSLEPEDFAVYYCQQFTSSPYTFGGGTKVEIK",2.6,–,–,–
"h16B3-S5 (antibody, V domains shown, humanized) VH: EVQLVESGGGLVQPGGSLRLSCAASGFTFSGYTMSWVRQAPGKGLEWVSEISFARDRAFYPDTVKGRFTISRDNSKNTLYLQMNSLRAEDTAVYYCARLGGKNRDFWYFDLWGQGTTVTVSS VL: DIVMTQSPDSLAVSLGERATINCRASESVEYYGTSLMQWYQQKPGQPPKLLIYAASNVESGVPDRFSGSGSGTDFTLTISSLQAEDVAVYYCQQSWKVPFTFGQGTKLEIK",1.2,1,5.7e-05,54000
"h16B3-S8 (antibody, V domains shown, humanized) VH: EVQLVESGGGLVQPGGSLRLSCAASGFTFSAYTMSWVRQAPGKGLEWVSDISFARDRAFYPDTVKGRFTISRDNSKNTLYLQMNSLRAEDTAVYYCARLGGKNRDFWYFDLWGQGTTVTVSS VL: DIVMTQSPDSLAVSLGERATINCRASESVEYYGTSLMQWYQQKPGQPPKLLIYAASNVESGVPDRFSGSGSGTDFTLTISSLQAEDVAVYYCQQSWRVPFTFGQGTKLEIK",1.4,0.78,4e-05,52000
"h16B3-S7 (antibody, V domains shown, humanized) VH: EVQLVESGGGLVQPGGSLRLSCAASGFTFSAYTMSWVRQAPGKGLEWVSDISFARDRAFYPDTVKGRFTISRDNSKNTLYLQMNSLRAEDTAVYYCARLGGKNRDFWYFDLWGQGTTVTVSS VL: DIVMTQSPDSLAVSLGERATINCRASESVEYYGTSLMQWYQQKPGQPPKLLIYAASNVESGVPDRFSGSGSGTDFTLTISSLQAEDVAVYYCQQSWKVPFTFGQGTKLEIK",1.4,1.2,5.9e-05,50000

# Further lines, results first:
Neutralizing activity IC50 [1] [nM],Kd [2] [nM],koff [2] [s⁻¹],kon [2] [M⁻¹ s⁻¹],Binder
2,–,–,–,"h23H8-S3 (antibody, V domains shown) VH: QVQLVQSGAEVKKPGASVKVSCKASGYTFTDNTIHWVRQAPGQGLEWMGHINPYYGGTNNNEKFKDRVTMTRDTSISTAYMELSRLRSDDTAVYYCARKGIYYSSPFDYWGQGTTVTVSS VL: DIQMTQSPSSLSASVGDRVTITCRASQDINNYLNWYQQKPGKAPKLLISYTSKLHSGVPSRFSGSGSGTDFTLTISSLQPEDFATYYCQQGNTLPFTFGQGTKLEIK"
2.7,–,–,–,"h53A11-S2 (antibody, V domains shown) VH: QVQLVQSGAEVKKPGASVKVSCKASGYTFTDYTMHWVRQAPGQRLEWMGGINPYYGGTTYNEKFKDRVTITRDTSASTAYMELSSLRSEDTAVYYCAKGDYYGGSYNYWGQGTTVTVSS VL: EIVMTQSLATLSVSPGERATLSCRASQDISNSLHWYQQKPGQAPRLLIYYASQSISGIPARFSGSGSGTEFTLTISSLQSEDFAVYYCQQSNSWPYTFGQGTKLEIK"
9,–,–,–,"h13B3-S2 (antibody, V domains shown) VH: QVQLVQSGAEVKKPGASVKVSCKASGYTFTEYTMHWVRQAPGQGLEWMGSINPYYGGTSYNEKFKDRVTSTRDTSISTAYMELSRLRSDDTVVYYCARYGNYVGYFDYWGQGTTVTVSS VL: EIVLTQSPGTLSLSPGERATLSCRASSSVHYMYWYQQKPGQAPRLLIYYTSNLAPGIPDRFSGSGSGTDFTLTISRLEPEDFAVYYCQQFTSSPYTFGGGTKVEIK"
2.7,–,–,–,"h16B3-S1 (antibody, V domains shown) VH: EVQLVESGGGLVQPGGSLRLSCAASGFTFSGYTMSWVRQAPGKGLEWVSEISFARDRAFYPDTVKGRFTISRDNSKNTLYLQMNSLRAEDTAVYYCAKLGGRNHDYWYFDVWGQGTTVTVSS VL: DIVMTQSPDSLAVSLGERATINCRASESVEYYGTSLMQWYQQKPGQPPKLLIYAASNVESGVPDRFSGSGSGTDFTLTISSLQAEDVAVYYCQQSWKVPFTFGQGTKLEIK"
1.7,3,0.00018,61000,"h16B3-S4 (antibody, V domains shown, humanized) VH: EVQLVESGGGLVQPGGSLRLSCAASGFTFSGYTMSWVRQAPGKGLEWVSEISFARDRAFYPDTVKGRFTISRDNSKNTLYLQMNSLRAEDTAVYYCARLGGKNHDFWYFDVWGQGTTVTVSS VL: DIVMTQSPDSLAVSLGERATINCRASESVEYYGTSLMQWYQQKPGQPPKLLIYAASNVESGVPDRFSGSGSGTDFTLTISSLQAEDVAVYYCQQSWRVPFTFGQGTKLEIK"
1,1,5.8e-05,60000,"h16B3-S6 (antibody, V domains shown, humanized) VH: EVQLVESGGGLVQPGGSLRLSCAASGFTFSGYTMSWVRQAPGKGLEWVSEISFARDRAFYPDTVKGRFTISRDNSKNTLYLQMNSLRAEDTAVYYCARLGGKNRDFWYFDLWGQGTTVTVSS VL: DIVMTQSPDSLAVSLGERATINCRASESVEYYGTSLMQWYQQKPGQPPKLLIYAASNVESGVPDRFSGSGSGTDFTLTISSLQAEDVAVYYCQQSWRVPFTFGQGTKLEIK"
1.9,4.5,0.00013,30000,"h16B3-S3 (antibody, V domains shown, humanized) VH: EVQLVESGGGLVQPGGSLRLSCAASGFTFSGYTMSWVRQAPGKGLEWVSEISFARDRAFYPDTVKGRFTISRDNSKNTLYLQMNSLRAEDTAVYYCARLGGKNHDFWYFDVWGQGTTVTVSS VL: DIVMTQSPDSLAVSLGERATINCRASESVEYYGTSLMQWYQQKPGQPPKLLIYAASNVESGVPDRFSGSGSGTDFTLTISSLQAEDVAVYYCQQSWKVPFTFGQGTKLEIK"

# Reference: patent US20200071424A1 (SHIONOGI, published 2020)
